In the assay the target is Fig4-C486S-Citrine (human) (human) (UniProt Q92562). Nature of the assay: co-IP.
Sequence of UniProt Q92562 (Q92562 whole entry C486S): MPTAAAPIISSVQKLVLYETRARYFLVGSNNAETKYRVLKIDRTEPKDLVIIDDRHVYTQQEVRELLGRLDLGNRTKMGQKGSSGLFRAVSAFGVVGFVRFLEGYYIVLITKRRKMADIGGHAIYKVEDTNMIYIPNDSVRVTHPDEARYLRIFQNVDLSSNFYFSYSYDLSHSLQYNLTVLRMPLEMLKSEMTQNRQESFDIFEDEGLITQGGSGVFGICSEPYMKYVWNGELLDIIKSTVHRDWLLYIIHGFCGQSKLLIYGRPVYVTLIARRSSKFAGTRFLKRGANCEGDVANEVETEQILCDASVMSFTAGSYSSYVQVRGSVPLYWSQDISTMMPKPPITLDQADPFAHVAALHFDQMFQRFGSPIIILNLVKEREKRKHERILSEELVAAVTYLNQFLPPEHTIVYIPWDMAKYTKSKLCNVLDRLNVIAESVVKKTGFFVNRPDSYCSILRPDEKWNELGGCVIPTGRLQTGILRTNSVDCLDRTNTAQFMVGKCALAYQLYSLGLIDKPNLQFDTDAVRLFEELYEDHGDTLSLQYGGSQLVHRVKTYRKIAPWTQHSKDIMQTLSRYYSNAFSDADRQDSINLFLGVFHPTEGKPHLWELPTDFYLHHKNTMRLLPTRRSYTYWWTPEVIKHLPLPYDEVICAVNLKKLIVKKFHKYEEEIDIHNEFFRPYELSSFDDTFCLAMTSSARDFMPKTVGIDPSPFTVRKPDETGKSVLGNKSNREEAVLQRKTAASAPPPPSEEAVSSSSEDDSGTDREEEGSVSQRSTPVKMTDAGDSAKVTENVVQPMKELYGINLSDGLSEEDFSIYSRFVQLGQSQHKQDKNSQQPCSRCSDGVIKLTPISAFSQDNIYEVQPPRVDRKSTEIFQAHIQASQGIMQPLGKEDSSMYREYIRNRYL

PIKfyve, Q9Y2I7 1-2098 yielded a fold PIKfyve association over wild-type Fig4 of 9.27 fold.

For the origin of these results see article PMC7525815.
